Results: PMC9405973, “Altered Conformational Landscape upon Sensing Guanine Nucleotides in a Disease Mutant of Elongation Factor-like 1 (EFL1) GTPase” (Biomolecules, 2022)

Tests used:
[1] = biological target: Sdo1 (Saccharomyces cerevisiae) (UniProt Q07953); test: ITC; conditions: cited from earlier work
[2] = substrate: Nc1nc2c(ncn2[C@@H]2O[C@H](COP(=O)(O)OP(=O)(O)OP(=O)(O)O)[C@@H](O)[C@H]2O)c(=O)[nH]1; test: GTP hydrolysis by PNP-coupled Enzchek phosphate assay (MESG, 360 nm), pH 7.5, 5 mM MgCl2, 6 µM Efl1 alone, Michaelis-Menten fit.; assay type: biochemical; conditions: 25.0 °C
Procedure: (§1) Finally, we measured the enzyme kinetics of mutant Efl1 R1086Q as an isolated enzyme and bound to Sdo1 using an enzymatic coupled assay with a purine nucleoside phosphorylase (PNP) enzyme. This analysis was extended to another disease mutation (EFL1 M882K) also located in domain IV of the GTPase using the equivalent yeast variant, Efl1 L910K [17]. The Km and kcat kinetic parameters were calculated using non-linear regression assuming a Michaelis–Menten model (Supplementary Table S1). […] The catalytic constant for mutant R1086Q and the wild-type enzyme consisted of 0.67 min^−1, and it was 0.58 min^−1 for mutant Efl1 L910K. […] In line with the proposed role of Sdo1 as a guanine exchange factor of Efl1, previous results have shown that the interaction of wild-type Efl1 with Sdo1 impacted its Km for GTP, decreasing its value 2–3-fold. The Km values for the complexes formed between Sdo1 and Efl1 mutants decreased by half with respect to their cognate-free counterpart and differed from each other. […] The measured Km value comprises all the microscopic rate constants of the individual reactions occurring in the enzyme, which include the binding to the substrate and product and the corresponding conformational changes.
Hydrolysis of GTP was measured using the Enzchek Phosphate Assay kit (Molecular Probes) as described by Webb. […]
Reactions were initiated and the GTPase was added after 3 min. Time courses were followed by recording the change in absorbance at 360 nm in a Cary 60 UV -Vis spectrophotometer (Agilent Technologies). Background absorbance was recorded prior to the addition of the GTPase and subtracted from the sample signals. The slope of the measured time courses corresponded to the GTP hydrolysis rate. […] Data were analysed by nonlinear regression to the M ichaelis-Menten equation with the program Origin Version 5.0 (OriginLab, Co., Northampton, MA). […]
(§2) Maximum emission at 440 nm was replotted as a function of nucleotide concentration and analysed

[3] = tested on: Tif6 bound to 60S subunits; test: Tif6 release assay with purified yeast components; assay type: biochemical, Saccharomyces cerevisiae; conditions: 50 nM Efl1 variant, 50 nM Sdo1, 100 µM GTP, 30 °C, 10 min
Procedure: The release of Tif6 (yeast orthologue of eIF6) was performed as previously described in [3, 15]. Reaction mixtures contained 10 nM 60S subunits, 40 nM Tif6, 50 nM Efl1 variant, 50 nM Sdo1, and 100 µM GTP in buffer of 10 mM Tris-HCl at pH 7.4, 75 mM KCl, and 1.5 mM MgCl2 supplemented with RNAse inhibitors (Promega, Madison, WI, USA) and protease inhibitors free of EDTA (GoldBio, St. Louis, MO, USA). GTP was omitted in the negative control, and 50 mM EDTA was added as the positive control to disassemble the 60S ribosomal subunits. Reaction mixtures of 100 µL were incubated at 30 °C for 10 min and added on top of 150 µL of a 30% sucrose cushion prepared in the same buffer. Samples were centrifuged at 476,000× g for 30 min in an Optima tabletop MX ultracentrifuge with a TLA-100 rotor. The top 200 µL (free fraction) was recovered, and the remaining 50 µL was resuspended in 150 µL of the same buffer. Samples were precipitated with 30% trichloroacetic acid, electrophoresed in 10% Tris-glycine SDS-PAGE, transferred to a PVDF membrane, and immunoblotted with antibodies anti-eIF6 (PA531066; Thermo Scientific; dilution 1:3000) and anti-uL3 (OAAB09713; Aviva Systems Biology, San Diego, CA, USA; dilution 1:500) overnight at 4 °C. […] Signals were quantified using programme Image J version 1.8.0. […]

[4] = Enzyme kinetics of GTP hydrolysis (PNP coupled assay, Michaelis–Menten); assay type: biochemical, Saccharomyces cerevisiae; conditions: isolated enzyme
Procedure: as §1
Hydrolysis of GTP was measured using the Enzchek Phosphate Assay kit (Molecular Probes) as described by Webb. Standard reactions consisted of 100 µL containing 6 µM of Efl1 R1086Q and Efl1 L910K, 0.3 mM MESG, 1.0 U purine nucleoside phosphorylase (PNP) and the indicated amounts of GTP. Measurements done in the presence of effector protein contained 25 µM of Sdo1.
The reaction buffer consisted of 50 mM HEPES -KOH pH 7.5, 150 mM NaCl, 5 mM MgCl2.
Reactions were initiated and the GTPase was added after 3 min. Time courses were followed by recording the change in absorbance at 360 nm in a Cary 60 UV -Vis spectrophotometer (Agilent Technologies). Background absorbance was recorded prior to the addition of the GTPase and subtracted from the sample signals. The slope of the measured time courses corresponded to the GTP hydrolysis rate. The concentration of releas ed phosphate was estimated using a molar absorption coefficient at 360 nm of 14,386 M -1 cm-1 previously described in [2]. Data were analysed by nonlinear regression to the M ichaelis-Menten equation with the program Origin Version 5.0 (OriginLab, Co., Northampton, MA). […]
M HEPES-KOH pH 7.4, 2.5 mM magnesium acetate, 50 mM sucrose, 2 mM DTT, 0.1 mM PMSF, 0.1 mM benzamidine, 8 mM putrescine, 1 mM spermidine. […]
Dilution at the end of each titration was no longer than 2.5% of the initial volume. Data were corrected for the background signal by subtracting the fluorescence of the same ligand concentration without the GTPase in the reaction mixture.
as §2

Chain of Sdo1 (Saccharomyces cerevisiae) (Q07953 whole entry): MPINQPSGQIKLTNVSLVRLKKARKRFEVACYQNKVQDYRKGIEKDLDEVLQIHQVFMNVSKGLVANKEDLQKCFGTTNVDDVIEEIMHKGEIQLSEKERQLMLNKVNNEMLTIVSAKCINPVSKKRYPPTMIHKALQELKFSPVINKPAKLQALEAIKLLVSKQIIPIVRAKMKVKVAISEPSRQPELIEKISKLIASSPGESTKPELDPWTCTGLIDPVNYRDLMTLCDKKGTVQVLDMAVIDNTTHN

In the case of Efl1 (from UniProt P53893), the Kd [1] is listed as 300 nM.

B1: Efl1 R1086Q (Saccharomyces cerevisiae S288C; R1086Q) (protein)
chain: MPRVESETYKRLQNDPSCIRNICIVAHVDHGKTSLSDSLLASNGIISQRLAGKIRFLDARPDEQLRGITMESSAISLYFRVLRKQEGSDEPLVSEHLVNLIDSPGHIDFSSEVSAASRLCDGAVVLVDVVEGVCSQTVTVLRQCWTEKLKPILVLNKIDRLITELQLTPQEAYIHLSKVIEQVNSVIGSFFANERQLDDLFWREQLEKNENAEYIEKDDSGIYFNPTDNNVIFASAIDGWGFNIGQLAKFYEQKLGAKRENLQKVLWGDFYMDPKTKKIINNKGLKGRSLKPLFTSLILENIWKIYQNIITSRDSEMVEKIAKTLNIKLLARDLRSKDDKQLLRTIMGQWLPVSTAVLLTVIEKLPSPLESQTDRLNTILVSESDTAAMDPRLLKAMKTCDKEGPVSAYVSKMLSIPREELPVESKRIASSDELMERSRKAREEALNAAKHAGMVENMAMMDLNDNSKNTSDLYKRAKDTVMTPEVGEQTKPKPSRNNDVFCVVSEPSSALDLEFEYEGEDDSDSQDNFGLDFVPTDIDPNDPLSSMFEYEEEDPLLESIKQISEDVNDEVDDIFDEKEECLVAFARIYSGTLRVGQEISVLGPKYDPKCPEEHIETAIITHLYLFMGKELVPLDVCPSGNIVGIRGLAGKVLKSGTLIEKGVQGVNLAGVNFHFTPIVRVAVEPANPVEMSKLVRGLKLLDQADPCVHTYVENTGEHILCTAGELHLERCLKDLTERFAGIEITHSEPAIPYRETFLSASDMNPPQNSQLGRGVHELLLSQYKITFRTFPLSGKVTDFLSQHQNSIKNILKTSTSSMDPVIESTGSSFLDKKSLLVAFEEVINQEEKSRELLSGFKVKLAGFGPSRVGCNILLSQDNLLGSLFEGTPAAFEYSDSIKNGFQLAVSEGPLANEPVQGMCVLVESVHKMSQDEIESIEDPRYQQHIVDLSGRLITSTRDAIHEAFLDWSPRIMWAIYSCDIQTSVDVLGKVYAVILQRHGKIISEEMKEGTPFFQIEAHVPVVEAFGLSEDIRKRTSGAAQPQLVFSGFECIDLDPFWVPTTEEELEELGDTADRENIARKHMNAIQRRKGLFIEEKVVENAEKQRTLKKN
notes: recombinantly expressed in S. cerevisiae; isolated GTPase
In the case of B1, the Km [2] is reported as 146 µM, the “release of Tif6 from the 60S subunit (distribution of Tif6 in free and bound fraction, immunoblot)” value [3] is reported as “reduced portion of Tif6 in the free fraction compared with that for the wild type” and the kcat [4] is reported as 0.0112 s⁻¹.
